According to patent US20250171537A1 (NOVIMMUNE, published 2025):

Target: T1, human CD47 (human, UniProt Q08722 19-139, limits assumed)
T1 construct: in the IHC study it is the native protein in frozen human tissues; also called Integrin-Associated-Protein; IAP
Experiment: immunohistochemistry, biotin-conjugated NI-1801 on frozen human tissues
From the text: Sections of ovarian carcinoma (endometrioid adenocarcinoma) were used as positive controls.

T1 sequence (Q08722 19-139 limits assumed): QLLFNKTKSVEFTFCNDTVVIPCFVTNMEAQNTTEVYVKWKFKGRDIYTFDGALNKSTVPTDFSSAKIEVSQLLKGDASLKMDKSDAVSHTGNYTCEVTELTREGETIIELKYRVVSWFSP

B1: NI-1801 (bispecific antibody Ka3×O38, anti-CD47 × anti-mesothelin) (bispecific antibody, human IgG1, kappa, lambda)
heavy: not shown
light 1: not shown
light 2: QPVLTQPASLSASPGASASLTCTLRSGINVRDYRIFWYQQKPGSPPQYLLRYKSASDKQQGSGVPSRFSGSKDASANAGILLISGLQSEDEADYYCMIWHHDSEGHAFVFGGGTKLTVLGQPKAAPSVTLFPPSSEELQANKATLVCLISDFYPGAVTVAWKADSSPVKAGVETTTPSKQSNNKYAASSYLSLTPEQWKSHRSYSCQVTHEGSTVEKTVAPTECS
notes: also called CD47×MSLN bispecific
B1: binds.
